Where two headings read alike, the source gives them in different places.
B1: mAb14256 (antibody)
heavy: not shown
light: QSVLTQPPSVSGAPGQRVTISCTGSSSNIGTHYDVHWYQQLPGTAPKLLIYGNSNRPSGVPDRFSGSKSGTSASLAITGLQAEDEADYYCQSFDNSLTAPYVFGTGTKVTVLGQPKAAPSVTLFPPSSEELQANKATLVCLISDFYPGAVTVAWKADSSPVKAGVETTTPSKQSNNKYAASSYLSLTPEQWKSHRSYSCQVTHEGSTVEKTVAPTECS
B2: mAb14257 (antibody)
heavy: not shown
light: QSVLTQPPSVSGAPGQRVTISCTGTSSNIGADFDVHWYQQFPGTAPKLLIYGHTNRPSGIPDRFSGSKSGTSASLAITGLQAEDEADYYCQSYDSSLSGSVVFGGGTKLTVLGQPKAAPSVTLFPPSSEELQANKATLVCLISDFYPGAVTVAWKADSSPVKAGVETTTPSKQSNNKYAASSYLSLTPEQWKSHRSYSCQVTHEGSTVEKTVAPTECS

How the values were obtained:
[1] = molecular target: T1, human FcγR3a 176Val allotype receptor (human, UniProt P08637 17-254); assay: cell-based or functional assay
[2] = molecular target: T1, human FcγR3a 176Val allotype receptor; assay: cell-based or functional assay; remark: listed apart in the source
SARS-COV-2 RBD-MMH [3] = molecular target: SARS-COV-2 RBD-MMH (SARS-CoV-2); assay: SPR 37C, run with dissociation at pH 5.0
SARS-COV-2 RBD-MMH [4] = molecular target: SARS-COV-2 RBD-MMH (SARS-CoV-2); assay: SPR 37C
SARS-COV-2 RBD-MMH [5] = molecular target: SARS-COV-2 RBD-MMH (SARS-CoV-2); assay: SPR 37C, run with dissociation at pH 7.4

Binder | EC50 (M), Jurkat/CD20/spike [1] [M] | Fold induction, Jurkat CD20 [1] [fold] | Fold induction, Jurkat/CD20/spike [1] [fold] | EC50 (M), Jurkat/CD20/spike [2] [M] | Fold induction, Jurkat CD20 [2] [fold] | Fold induction, Jurkat/CD20/spike [2] [fold] | RBD.mmh Bound at pH 7.4 (RU) (SARS-COV-2 RBD-MMH [3]) | koff (SARS-COV-2 RBD-MMH [3]) [s⁻¹] | t½ (SARS-COV-2 RBD-MMH [3]) [s] | t½ Ratio of pH 7.4 to pH 5.0 (SARS-COV-2 RBD-MMH [4]) | RBD.mmh Bound at pH 7.4 (RU) (SARS-COV-2 RBD-MMH [5]) | koff (SARS-COV-2 RBD-MMH [5]) [s⁻¹]
B1 | 4.48e-10 | 1 | 6.1 | 5.75e-10 | 1.1 | 2 | 54.1 | 0.00927 | 72 | 0.8 | 80.2 | 0.0111
B2 | 2.39e-10 | 1 | 8.8 | 2.63e-10 | 1.2 | 2.2 | 45.2 | 0.0172 | 42 | 2.1 | 82.3 | 0.00778

Source: patent US20260069689A1 (Regeneron, published 2026)
